Measurements taken from paper PMC1373645, “Lactate production yield from engineered yeasts is dependent from the host background, the lactate dehydrogenase source and the lactate export” (Microbial Cell Factories, 2006).

Tested on: T1, CC(=O)C(=O)O
T1 construct: full length, TTG start changed to ATG, untagged, expressed in S. cerevisiae GRF18U; crude cell extract; homotetramer
Test: cells, lysate or membranes
Type: biochemical, Lactiplantibacillus plantarum
Settings: NADH, acetate buffer pH 5.6, 25 °C, no fructose 1,6-diphosphate, Table 2 prints 1,50

For “L. plantarum LDH (LpLDH, plLDH) (Lactiplantibacillus plantarum WCFS1; C302S/H54D)”, the Km was 1504 µM.
